Measurements: patent US20250011363A1, “OPTIMIZED SHORTENED PEPTIDE THAT BINDS TO ACETYLCHOLINE RECEPTOR, AND USE THEREOF” (SKINMED CO., LTD., priority 2021, published 2025)

These substances were tested against acetylcholine receptor (Homo sapiens, UniProt P02708) (assay: SPR binding affinity (RU) of optimized 5mer/6mer/7mer peptides, Examples 6-7). Conditions: 6mer-1 Top sequence; SPR; peptides tested at 10 μM.
Method in brief: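 Synthetic 5mer and 6mer peptides, built from frequent or infrequent amino-acid combinations, were tested at 10 μM for binding to the human acetylcholine receptor by surface plasmon resonance. Binding is reported in response units (RU).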

Chain of acetylcholine receptor (P02708 21-457): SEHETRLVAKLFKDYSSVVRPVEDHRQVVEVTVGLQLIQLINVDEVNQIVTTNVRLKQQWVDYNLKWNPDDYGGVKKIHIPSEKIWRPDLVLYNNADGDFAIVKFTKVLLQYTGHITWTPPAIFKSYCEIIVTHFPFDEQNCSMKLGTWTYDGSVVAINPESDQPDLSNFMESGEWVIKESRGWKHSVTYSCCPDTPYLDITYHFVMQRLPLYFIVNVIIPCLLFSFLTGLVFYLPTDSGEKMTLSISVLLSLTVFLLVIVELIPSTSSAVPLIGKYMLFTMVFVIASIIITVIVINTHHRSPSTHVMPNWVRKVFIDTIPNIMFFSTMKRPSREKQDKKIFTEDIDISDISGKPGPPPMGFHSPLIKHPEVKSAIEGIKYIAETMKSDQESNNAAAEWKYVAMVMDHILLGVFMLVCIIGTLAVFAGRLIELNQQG

Substance | Binding affinity
6mer-1-377 (KRWITR) | 148 Ru
6mer-1-1225 (RKLICK) | 142 Ru
6mer-1-325 (RRQIQR) | 142 Ru
6mer-1-261 (KRWVTR) | 121 Ru
6mer-1-333 (RKRQSR) | 135 Ru
6mer-1-384 (RKVICK) | 148 Ru
6mer-1-319 (KRWVQK) | 123 Ru

Same assay, conditions: 6mer-2 Top sequence; SPR; peptides tested at 10 μM

Substance | Binding affinity
6mer-2-56 (RSQLRR) | 149 Ru
6mer-2-61 (RGFQRK) | 148 Ru
6mer-2-76 (RRQSRK) | 142 Ru
6mer-2-167 (KLFQKR) | 145 Ru
6mer-2-143 (RRVCRR) | 128 Ru
6mer-2-130 (RGVCRR) | 122 Ru
6mer-2-54 (KGRRRR) | 124 Ru
6mer-2-69 (KWFLRK) | 139 Ru

Same assay, conditions: SPR, Resonance Units; 5mer Bottom sequence (bottom combinations); peptides tested at 10 μM

Substance | Binding affinity
5mer-965 (KMEIR) | 30 Ru
5mer-963 (RAPNK) | 24 Ru
5mer-1005 (RTHGR) | 30 Ru
5mer-927 (RDEDR) | 19 Ru
5mer-1068 (RMHKK) | 11 Ru
5mer-1035 (KEHVR) | 19 Ru
5mer-1000 (KHCWR) | 20 Ru
5mer-681 (KDTMR) | 18 Ru
5mer-1033 (REWDK) | 28 Ru
5mer-808 (KFCIR) | 13 Ru

Same assay, conditions: SPR, Resonance Units; peptides tested at 10 μM; 6mer-1 Bottom sequence

Substance | Binding affinity
6mer-1-1130 (RKATFR) | 31 Ru
6mer-1-1177 (RRHTMR) | 21 Ru
6mer-1-1009 (RKMSKK) | 29 Ru
6mer-1-1138 (KRDCFR) | 21 Ru
6mer-1-1081 (KRPSNK) | 23 Ru
6mer-1-1046 (RKDPHR) | 38 Ru
6mer-1-1000 (RKMSHR) | 28 Ru

Same assay, conditions: SPR, Resonance Units; peptides tested at 10 μM; 6mer-1 Bottom sequence (Table 11)

Substance | Binding affinity
6mer-1-754 (RKKKMK) | 24 Ru
6mer-1-618 (RKCHVK) | 19 Ru
6mer-1-724 (KRPKNK) | 19 Ru
6mer-1-720 (RRKHKR) | 11 Ru

Same assay, conditions: SPR, Resonance Units; peptides tested at 10 μM; 6mer-2 Bottom sequence

Substance | Binding affinity
6mer-2-836 (KNTMKR) | 26 Ru
6mer-2-812 (KPPEKR) | 33 Ru
6mer-2-940 (RNENKK) | 41 Ru
6mer-2-630 (RYAFRR) | 27 Ru
6mer-2-893 (REHVRR) | 17 Ru
6mer-2-800 (RTAWKK) | 11 Ru
6mer-2-730 (RNTHKR) | 26 Ru
6mer-2-876 (KEDNKR) | 17 Ru
6mer-2-628 (RKSFKR) | 30 Ru
6mer-2-859 (RMDFRK) | 21 Ru
6mer-2-908 (KYKKKR) | 33 Ru

Same assay, conditions: SPR, Resonance Units; peptides tested at 10 μM; 6mer-2 Top sequence

Substance | Binding affinity
6mer-2-446 (RQLQKK) | 153 Ru
6mer-2-534 (RVQLRR) | 139 Ru
6mer-2-545 (KLYCRK) | 125 Ru
6mer-2-432 (KVVRKR) | 148 Ru
6mer-2-525 (KWVRKK) | 145 Ru
6mer-2-538 (KQFCKK) | 125 Ru
6mer-2-440 (KQLSKK) | 153 Ru

Same assay, conditions: SPR, Resonance Units; peptides tested at 10 μM; 6mer-2 Top sequence (Table 12)

Substance | Binding affinity
6mer-2-250 (KRRRKK) | 145 Ru
6mer-2-216 (KGILKK) | 126 Ru
6mer-2-314 (KQYCKK) | 127 Ru
6mer-2-221 (KQVRKK) | 153 Ru
6mer-2-274 (KLRTKR) | 148 Ru
6mer-2-336 (KLITKR) | 135 Ru
6mer-2-243 (KRVLKR) | 148 Ru
6mer-2-363 (KSIYRK) | 147 Ru
6mer-2-225 (KRLLRR) | 145 Ru

Same assay, conditions: SPR, peptides at 10 μM; 6mer-2 Bottom sequence

Substance | Binding affinity
6mer-2-1186 (KEKFRR) | 27 Ru
6mer-2-1064 (RCMKRR) | 39 Ru
6mer-2-1022 (KCNPRR) | 22 Ru
6mer-2-1200 (RHHNRR) | 30 Ru
6mer-2-1095 (KYSMRR) | 39 Ru
6mer-2-1015 (RDEMKR) | 29 Ru
6mer-2-1078 (KDTFRR) | 40 Ru

Same assay, conditions: SPR, peptides tested at 10 μM; 5mer Top sequence

Substance | Binding affinity
5mer-123 (KWIRR) | 53 Ru
5mer-318 (KRVCK) | 64 Ru
5mer-392 (RSRLR) | 87 Ru
5mer-45 (RVFQR) | 86 Ru
5mer-354 (RSQTR) | 64 Ru
5mer-355 (KLLYR) | 87 Ru

Same assay, conditions: SPR, peptides tested at 10 μM; 5mer Top sequence (top combinations)

Substance | Binding affinity
5mer-581 (KGVLR) | 65 Ru
5mer-535 (KSLLR) | 70 Ru
5mer-269 (RLFLR) | 85 Ru
5mer-547 (KQVTK) | 77 Ru
5mer-559 (KQQLK) | 81 Ru
5mer-229 (KGLTR) | 84 Ru
5mer-223 (KQVRK) | 61 Ru
5mer-225 (KRQQK) | 51 Ru
5mer-220 (KRILR) | 81 Ru

Same assay, conditions: SPR, peptides tested at 10 μM; 6mer-1 Bottom sequence (Table 11)

Substance | Binding affinity
6mer-1-992 (RRCTAK) | 28 Ru
6mer-1-865 (KKMTAR) | 21 Ru
6mer-1-833 (RRYKNR) | 19 Ru
6mer-1-975 (RKASIK) | 22 Ru
6mer-1-973 (RRDHVK) | 25 Ru
6mer-1-886 (RKFSNK) | 17 Ru

Same assay, conditions: SPR, peptides tested at 10 μM; 6mer-1 Top sequence

Substance | Binding affinity
6mer-1-507 (RRSQSK) | 139 Ru
6mer-1-502 (RKLFSR) | 146 Ru
6mer-1-586 (KRVICK) | 136 Ru
6mer-1-424 (RRRIYR) | 135 Ru
6mer-1-419 (KRGFYR) | 148 Ru
6mer-1-598 (RKWLSK) | 142 Ru
6mer-1-559 (RRRLTK) | 139 Ru
6mer-1-445 (KRVRLR) | 145 Ru

Same assay, conditions: SPR, peptides tested at 10 μM; 6mer-1 Top sequence (top combinations)

Substance | Binding affinity
6mer-1-42 (KKRIQR) | 139 Ru
6mer-1-21 (RKWYLK) | 137 Ru
6mer-1-147 (KKQIQR) | 125 Ru
6mer-1-30 (RRQVRR) | 154 Ru
6mer-1-194 (RKWQRR) | 144 Ru
6mer-1-75 (RRQYQK) | 139 Ru
6mer-1-6 (RKSRCK) | 153 Ru
6mer-1-156 (RRSVTK) | 154 Ru
6mer-1-61 (KRSYCK) | 121 Ru
6mer-1-14 (RKRFLK) | 145 Ru

Same assay, conditions: SPR; XRRQRR-6mer and RRQRRX-6mer

Substance | Binding affinity, relative value to the RRQRR sequence
3609 (WRRQRR) [compound 3609] | 138
3636 (RRQRRK) [compound 3636] | 175

Same assay, conditions: SPR; peptides tested at 10 μM; 5mer Bottom sequence

Substance | Binding affinity
5mer-1131 (KCDGK) | 14 Ru
5mer-867 (KDSWK) | 14 Ru
5mer-851 (KMCWK) | 19 Ru
5mer-858 (RIMGR) | 33 Ru
5mer-864 (KYHPR) | 25 Ru
5mer-820 (RIMHK) | 28 Ru
5mer-1176 (KIHFK) | 25 Ru
5mer-884 (KIWEK) | 28 Ru
